Data taken from PMC4256270, “In Vivo Occupancy of Mitochondrial Single-Stranded DNA Binding Protein Supports the Strand Displacement Mode of DNA Replication”.

Biological target: T1, mtSSB (mitochondrial single-stranded DNA-binding protein) (human, UniProt Q04837 17-148)
T1 sequence: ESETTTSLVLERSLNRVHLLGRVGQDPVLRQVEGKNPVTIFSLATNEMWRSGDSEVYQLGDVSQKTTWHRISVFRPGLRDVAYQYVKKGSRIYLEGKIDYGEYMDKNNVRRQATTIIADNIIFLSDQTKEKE
Assay: EMSA; 25 fmol DNA in 15 ul; no free template at tetramer:DNA 1:1 or higher; 10 mM Mg2+, 2 mM ATP; 20 mM Tris-HCl pH 8.0, 10 mM MgCl2, 100 ug/ml BSA, 1 mM DTT, 2 mM ATP, 10% glycerol, 15 min at room temperature; 10% native PAGE in 1x TBE
Details: protein: recombinant; chain copies: 4; label: 5'-32P; single strand, unstructured

B1: 6-dT (no predicted secondary structure; no stem) (ssDNA)
DNA: AACACCAGCAGAACTTTTTTAACAAGCAACACACAGAAGACA
binding result: binds
